Experimental data: PMC10509265

Molecular target: IP3R-type 2 (UniProt Q9Z329)
Experiment: anti-IP3R2 co-IP from heart lysate
Details: reference: wild type heart after TAC; sites S14

Bcl-xL (from UniProt Q64373) S14A knock-in heart after TAC
binding against the reference: stronger
